Experimental findings from patent publication US20240027467A1 (VIB VZW, published 2024) are described below.

Changes are numbered by the printed parent chain. Names and notes keep the numbering of the source. Read-outs that look alike come from different tables or passages of the source.

In assay [1] the target is T1, GFP protein (Aequorea victoria (Water jellyfish) …, UniProt P42212 1-238 = GFP).
T1 construct: Purified GFP used as BLI analyte, in crystals and in NANEX; also called Green fluorescent protein
Put plainly: BLI.
Procedure: (§1) Streptavidin-coated Octet® biosensors were used to capture biotinylated Nanobodies (1 μg/mL). Binding and dissociation isotherms at several GFP concentrations (1 nM to 5 μM range) were analyzed on an OctetRed (molecular devices). All assays were performed in Hepes 25 mM pH7.5, NaCl 150 mM supplemented with BSA 0.1% and Tween²⁰ 0.005% at room temperature.

For assay [2], the target named is T1, GFP protein. Put plainly: BLI (OctetRed), biotinylated Nb on streptavidin sensor, GFP as analyte.
Procedure: as §1
Assay [3] has as its target T2, CA16976 eGFP-tagged human recombinant androgen receptor (eGFP-6His-TEV-ARb) (human).
T2 construct: Expressed in HEK293T cells, captured from the lysate; also called GFP-ARb; eGFP-ARb
Put plainly: NANEX column: HEK293T lysate with GFP-ARb on immobilised CA15816; A280/A488.
Procedure: 10 mL of lysate was injected on this NANEX column. […] FIG. 45A) The elution of GFP-GR by this stripper was monitored by following the absorbance at 280 nm and 488 nm. […] The right peak eluted upon regeneration with 200 mM glycine at pH 2.3. FIG. 45B) SDS-PAGE of the different purification fractions, molecular weight marker (PageRuler™ Prestained Protein Ladder).
Recombinant human eGFP-6His-TEV-AR was expressed using a pcDNA3.1+N-eGFP vector transfected into human HEK239T cells. Cells were transfected in 150×21 mm dishes (Nunclon™ Delta) using X-tremeGENE™ 9 DNA Transfection Reagent (XTG9-RO Roche) with a ratio 3:1 μL/μg DNA. After transfection, HEK239T cells were grown for 48 h at 37° C. and 5% CO₂. Cells from 3 plates were collected by pipetting and centrifugation, washed with PBS and resuspended in 10 mL lysis buffer 10 mM Hepes 7.5, 2.5 mM DTT, 1 mM EDTA, 20 mM Na₂MoO₄, 10% Glycerol (supplemented with protease inhibitors) before lysis using a Dounce homogenizer. […] Next, the column was washed with 10 CVs of washing buffer (10 mM Hepes 7.5, 2.5 mM DTT, 1 mM EDTA, 20 mM Na₂MoO₄, 10% Glycerol) using a syringe.

Assay [4] deals with T3, CA16607 eGFP-tagged human recombinant glucocorticoid receptor (eGFP-6His-TEV-GR) (human).
T3 construct: Expressed in HEK293T cells, captured from the lysate; also called GFP-GR; eGFP-GR
Put plainly: NANEX column: HEK293T lysate with GFP-GR on immobilised CA15816; A280/A488, SDS-PAGE, western blot [D00049 FIG. 44B]. On the technique in general: In western blotting, separated proteins are transferred to a membrane and probed.

Assay [5] has as its target T4, native human coagulation factor IX (human, UniProt P00740 47-461).
T4 construct: Native protein captured from plasma; also called FIX
Put plainly: NANEX column: 30 mL human recovered plasma recirculated over immobilised MegaBody CA16388; A280, SDS-PAGE and western blot [D00048 FIG. 43B; D00048 FIG. 43C].
Procedure: The purification process was monitored by measuring the absorbance at 280 nm (Protein absorption) (FIGS. 43A-43C). The elution peak was collected in 750 μl fractions and analysed in SDS/PAGE gel and western blot including commercial human coagulation factor IX as a control (FIGS. 43A-43C).

Assay [6] concerns the target T4, native human coagulation factor IX. Put plainly: NANEX column: 30 mL human plasma recirculated over immobilised CA11143; A280, SDS-PAGE and western blot [D00046 FIG. 42B; D00047 FIG. 42C].
Procedure: (§2) 30 mL of human recovered plasma treated with ACD anticoagulant was loaded on this NANEX column by recirculation for 120 minutes. […] FIG. 42B) SDS-PAGE of representative fractions of the purification and FIG. 42C) the western blot of these fractions. MW, molecular weight marker (PageRuler™ Prestained Protein Ladder); and asterisk (*), commercial native human coagulation factor IX (used as control).
(§3) The purification process was monitored by measuring the absorbance at 280 nm (Protein absorption) (FIGS. 42A-42C). The elution peak was collected in 750 μl fractions and the fractions were analyzed in SDS/PAGE gel and by western blot including a commercial human coagulation factor IX as a positive control (FIGS. 42A-42C). Regeneration of the column was obtained by 5 CV of 200 mM Glycine buffer pH 2.3.
Assay [7] has as its target EPEA-tagged GFP (GFP-EPEA) protein. Put plainly: BLI; analyte not stated. (In general: BLI is a label-free optical method that tracks binding on a fibre tip over time.)
The target in assay [8] is T4, native human coagulation factor IX. Put plainly: displacement of native factor IX from immobilised CA11143 (NANEX column) by 1 mg MegaBody CA16383; A280, SDS-PAGE and western blot [D00046 FIG. 42B; D00047 FIG. 42C].
Procedure: as §2, §3
Assay [9] deals with mCherry. Put plainly: BLI.
Procedure: (§4) Streptavidin-coated Octet® biosensors were used to capture biotinylated Nanobodies (1 μg/mL). […] All assays were performed in Hepes 25 mM pH7.5, NaCl 150 mM supplemented with BSA 0.1% and Tween²⁰ 0.005% at room temperature.
Assay [10] concerns the target mCherry. Put plainly: BLI. This is another data set of the same source.
Procedure: as §4
For assay [11], the target named is mCherry. Put plainly: BLI (OctetRed), biotinylated Nb on streptavidin sensor, mCherry 8.23-222 nM.
Procedure: as §4
Assay [12] addresses mCherry. The description is as above. This is another data set of the same source.
Procedure: as §4
Assay [13] has as its target T5, FmIH_lectin_mCherry_his (CA17337).
T5 construct: also called mCherry-fusion protein
Put plainly: displacement of FmlH_lectin_mCherry_his from immobilised CA16964 (NANEX column) by 1 mg CA17302; A280 and SDS-PAGE [D00043 FIG. 39B].

Assay [14] shares this target. Put plainly: NANEX column: lysate with FmlH_lectin_mCherry_his on immobilised CA17341; A280/A585 and SDS-PAGE [D00045 FIG. 41B].

T4 sequence (P00740 47-461 limits assumed): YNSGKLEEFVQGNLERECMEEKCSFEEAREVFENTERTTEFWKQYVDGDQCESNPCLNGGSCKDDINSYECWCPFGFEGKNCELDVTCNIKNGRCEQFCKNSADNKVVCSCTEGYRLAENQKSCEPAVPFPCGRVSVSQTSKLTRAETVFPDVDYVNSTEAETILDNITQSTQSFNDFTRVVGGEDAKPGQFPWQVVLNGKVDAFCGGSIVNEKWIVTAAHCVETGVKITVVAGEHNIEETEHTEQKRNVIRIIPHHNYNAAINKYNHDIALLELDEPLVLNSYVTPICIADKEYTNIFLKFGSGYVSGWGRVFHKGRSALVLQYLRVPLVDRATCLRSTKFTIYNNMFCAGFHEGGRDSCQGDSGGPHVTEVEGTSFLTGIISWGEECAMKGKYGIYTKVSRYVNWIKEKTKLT
T2 sequence (chain, as listed by the source limits assumed): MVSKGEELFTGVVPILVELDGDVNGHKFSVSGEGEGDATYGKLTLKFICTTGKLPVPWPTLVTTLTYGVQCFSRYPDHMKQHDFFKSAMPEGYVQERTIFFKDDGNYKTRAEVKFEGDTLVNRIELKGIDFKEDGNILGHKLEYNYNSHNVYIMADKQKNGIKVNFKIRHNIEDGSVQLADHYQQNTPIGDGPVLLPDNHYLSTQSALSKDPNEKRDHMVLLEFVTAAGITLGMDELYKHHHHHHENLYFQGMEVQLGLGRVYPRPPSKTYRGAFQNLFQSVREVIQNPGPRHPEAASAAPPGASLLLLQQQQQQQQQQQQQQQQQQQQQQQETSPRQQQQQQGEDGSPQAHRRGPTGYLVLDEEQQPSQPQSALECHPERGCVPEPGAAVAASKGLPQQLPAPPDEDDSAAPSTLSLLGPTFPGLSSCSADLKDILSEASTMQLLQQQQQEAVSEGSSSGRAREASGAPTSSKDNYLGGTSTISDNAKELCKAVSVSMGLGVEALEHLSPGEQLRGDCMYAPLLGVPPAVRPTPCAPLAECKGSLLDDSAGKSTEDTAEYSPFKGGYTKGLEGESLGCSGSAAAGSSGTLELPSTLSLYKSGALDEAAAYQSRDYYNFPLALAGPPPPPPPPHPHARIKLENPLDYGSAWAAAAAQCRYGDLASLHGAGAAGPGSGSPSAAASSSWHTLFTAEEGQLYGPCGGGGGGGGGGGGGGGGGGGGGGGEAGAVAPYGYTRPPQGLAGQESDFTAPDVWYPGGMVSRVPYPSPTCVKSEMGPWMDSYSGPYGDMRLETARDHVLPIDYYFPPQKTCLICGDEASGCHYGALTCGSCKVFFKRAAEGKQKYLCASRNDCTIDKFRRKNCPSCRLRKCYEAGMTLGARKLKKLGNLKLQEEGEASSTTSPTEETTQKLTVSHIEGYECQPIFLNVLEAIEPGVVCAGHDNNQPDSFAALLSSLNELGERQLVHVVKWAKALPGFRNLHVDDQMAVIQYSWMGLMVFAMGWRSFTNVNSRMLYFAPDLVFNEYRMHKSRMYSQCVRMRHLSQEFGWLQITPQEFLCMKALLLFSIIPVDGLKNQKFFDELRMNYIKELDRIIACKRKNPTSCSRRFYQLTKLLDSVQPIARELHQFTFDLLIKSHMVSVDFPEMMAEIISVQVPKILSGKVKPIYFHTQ
T3 sequence (chain, as listed by the source limits assumed): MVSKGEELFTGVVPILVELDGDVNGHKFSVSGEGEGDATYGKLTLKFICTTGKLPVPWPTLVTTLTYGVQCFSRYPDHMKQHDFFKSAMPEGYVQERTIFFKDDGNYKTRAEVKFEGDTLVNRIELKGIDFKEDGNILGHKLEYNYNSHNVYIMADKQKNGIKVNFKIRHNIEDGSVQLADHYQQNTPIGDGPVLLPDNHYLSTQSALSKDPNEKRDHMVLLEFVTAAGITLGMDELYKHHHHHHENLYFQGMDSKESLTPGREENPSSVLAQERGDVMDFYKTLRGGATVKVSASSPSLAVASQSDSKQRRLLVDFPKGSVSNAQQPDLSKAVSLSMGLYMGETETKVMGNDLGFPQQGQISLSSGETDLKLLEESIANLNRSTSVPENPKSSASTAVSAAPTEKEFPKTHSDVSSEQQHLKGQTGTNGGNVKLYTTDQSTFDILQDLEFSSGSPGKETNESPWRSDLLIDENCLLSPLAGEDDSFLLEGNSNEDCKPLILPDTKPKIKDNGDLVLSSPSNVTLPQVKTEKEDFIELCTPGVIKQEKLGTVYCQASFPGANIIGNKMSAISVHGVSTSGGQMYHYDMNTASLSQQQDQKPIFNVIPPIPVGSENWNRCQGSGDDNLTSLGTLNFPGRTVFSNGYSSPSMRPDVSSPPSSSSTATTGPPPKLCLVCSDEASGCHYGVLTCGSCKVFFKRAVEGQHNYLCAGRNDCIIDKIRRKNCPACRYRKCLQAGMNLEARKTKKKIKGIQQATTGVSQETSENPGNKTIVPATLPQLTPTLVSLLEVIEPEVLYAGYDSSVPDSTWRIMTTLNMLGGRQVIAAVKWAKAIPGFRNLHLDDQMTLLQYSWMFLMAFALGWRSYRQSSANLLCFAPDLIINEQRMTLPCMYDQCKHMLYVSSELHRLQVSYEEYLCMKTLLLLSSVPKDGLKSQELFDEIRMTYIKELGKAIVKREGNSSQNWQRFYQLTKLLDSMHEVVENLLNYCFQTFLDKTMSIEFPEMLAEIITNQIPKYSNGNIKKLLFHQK

B1: CA15816 GFP-NbT54A/V55A (C-term. 6xHis + EPEA) (VHH)
VHH: QVQLVESGGGLVQAGGSLRLSCAASGRTFSTAAMGWFRQAPGKERDFVAGIYWAAGSTYYADSAKGRFTISRDNAKNTVYLQMDSLKPEDTAVYYCAARRRGFTLAPTRANEYDYWGQGTQVTVSS
modifications: biotinylated for BLI
notes: T54A/V55A mutant of CA12760; also called Nb CA15816
For orientation: Kd means the concentration at which binding is half-saturated. One may read the koff as a measure of how fast the partners let go of each other. The low end stands for slow dissociation, the high end for fast dissociation. Broadly, the kon is the rate constant with which the complex forms. As to B1, in the assay with GFP protein [1], the “Half-time ratio (relative to the wt Nb CA12760)” value worked out at 70 fold and the “KD ratio (relative to the wt Nb CA12760)” value was found to be 50 fold. Also, in the assay with GFP protein [2], the dissociation constant (Kd) stood at 2.7 nM, the koff worked out at 0.00225 s⁻¹ and the kon was found to be 835000 M⁻¹ s⁻¹. In addition, the binding result in assay [3] is listed as “binds”. The binding result in [4] is “binds”.

B2: CA16388 FIX functionalized Nanobody trapper (MegaBody MbCA11143^YgjK, including C-terminal 6xHis+EPEA tag) (other)
chain: QVQLVESGGGLVKEETQSGLNNYARVVEKGQYDSLEIPAQVAASWESGRDDAAVFGFIDKEQLDKYVANGGKRSDWTVKFAENRSQDGTLLGYSLLQESVDQASYMYSDNHYLAEMATILGKPEEAKRYRQLAQQLADYINTCMFDPTTQFYYDVRIEDKPLANGCAGKPIVERGKGPEGWSPLFNGAATQANADAVVKVMLDPKEFNTFVPLGTAALTNPAFGADIYWRGRVWVDQFWFGLKGMERYGYRDDALKLADTFFRHAKGLTADGPIQENYNPLTGAQQGAPNFSWSAAHLYMLYNDFFRKQASGGGSGGGGSGGGGSGNADNYKNVINRTGAPQYMKDYDYDDHQRFNPFFDLGAWHGHLLPDGPNTMGGFPGVALLTEEYINFMASNFDRLTVWQDGKKVDFTLEAYSIPGALVQKLTAKDVQVEMTLRFATPRTSLLETKITSNKPLDLVWDGELLEKLEAKEGKPLSDKTIAGEYPDYQRKISATRDGLKVTFGKVRATWDLLTSGESEYQVHKSLPVQTEINGNRFTSKAHINGSTTLYTTYSHLLTAQEVSKEQMQIRDILARPAFYLTASQQRWEEYLKKGLTNPDATPEQTRVAVKAIETLNGNWRSPGGAVKFNTVTPSVTGRWFSGNQTWPWDTWKQAFAMAHFNPDIAKENIRAVFSWQIQPGDSVRPQDVGFVPDLIAWNLSPERGGDGGNWNERNTKPSLAAWSVMEVYNVTQDKTWVAEMYPKLVAYHDWWLRNRDHNGNGVPEYGATRDKAHNTESGEMLFTVKKSLRLSCAASGFTFDNYAMNWVRQAPGKGLEWVSGINWNGRNTYYAESVKDRFTISRDNAKNTLYLQMNSLKSEDTAVYYCAKEIITSGGPTGKYDYWGQGTQVTVSSHHHHHHEPEA
notes: also called MegaBody CA16388
B2: the binding result in [5] is “binds”.

B3: CA11143 FIX Nanobody trapper (including C-terminal 6xHis+EPEA tag) (VHH)
VHH: QVQLVESGGALVQPGGSLRLSCAASGFTFDNYAMNWVRQAPGKGLEWVSGINWNGRNTYYAESVKDRFTISRDNAKNTLYLQMNSLKSEDTAVYYCAKEIITSGGPTGKYDYWGQGTQVTVSS
notes: also called Nb CA11143
For the molecule B3, the binding result in assay [6] is listed as “binds”.

B4: CA4375, EPEA-NbSyn2 (C-term. 6xHis) (VHH)
VHH: QVQLQESGGGSVQAGGSLRLSCAASGIDSSSYCMGWFRQRPGKEREGVARINGLGGVKTAYADSVKDRFTISRDNAENTVYLQMNSLKPEDTAIYYCAAKFSPGYCGGSWSNFGYWGQGTQVTVSS
notes: Selected against human alpha-synuclein; also called monovalent CA4375; EPEA-specific Nanobody
In turn, B4 yielded a Kd in assay [7] of 60 nM.

B5: CA16383 FIX functionalized Nanobody stripper (MegaBody MbCA10309^YgjK, including C-terminal 6xHis+EPEA tag) (other)
chain: QVQLVESGGGLVKEETQSGLNNYARVVEKGQYDSLEIPAQVAASWESGRDDAAVFGFIDKEQLDKYVANGGKRSDWTVKFAENRSQDGTLLGYSLLQESVDQASYMYSDNHYLAEMATILGKPEEAKRYRQLAQQLADYINTCMFDPTTQFYYDVRIEDKPLANGCAGKPIVERGKGPEGWSPLFNGAATQANADAVVKVMLDPKEFNTFVPLGTAALTNPAFGADIYWRGRVWVDQFWFGLKGMERYGYRDDALKLADTFFRHAKGLTADGPIQENYNPLTGAQQGAPNFSWSAAHLYMLYNDFFRKQASGGGSGGGGSGGGGSGNADNYKNVINRTGAPQYMKDYDYDDHQRFNPFFDLGAWHGHLLPDGPNTMGGFPGVALLTEEYINFMASNFDRLTVWQDGKKVDFTLEAYSIPGALVQKLTAKDVQVEMTLRFATPRTSLLETKITSNKPLDLVWDGELLEKLEAKEGKPLSDKTIAGEYPDYQRKISATRDGLKVTFGKVRATWDLLTSGESEYQVHKSLPVQTEINGNRFTSKAHINGSTTLYTTYSHLLTAQEVSKEQMQIRDILARPAFYLTASQQRWEEYLKKGLTNPDATPEQTRVAVKAIETLNGNWRSPGGAVKFNTVTPSVTGRWFSGNQTWPWDTWKQAFAMAHFNPDIAKENIRAVFSWQIQPGDSVRPQDVGFVPDLIAWNLSPERGGDGGNWNERNTKPSLAAWSVMEVYNVTQDKTWVAEMYPKLVAYHDWWLRNRDHNGNGVPEYGATRDKAHNTESGEMLFTVKKSLRLSCATSGIGFSIYSMGWYRQAPGKERELVASIAGNEDKDYVESVKGRFTISRDYAKNTLYLEMSGLKFEDTAMYYCAAGLRRGVSLTPYYWGQGTQVTVSSHHHHHHEPEA
notes: also called MegaBody CA16383
On to B5, for which the binding result in assay [8] was “binds”.

B6: CA17302 mCherry Nanobody stripper (including C-terminal 6xHis+EPEA tag) (VHH)
VHH: QVQLVESGGGLVQAGGSLRLSCVASGLPFSRYNMAWFRQAPGKEREFVADIDWSGDSTYDLDSVKGRFTISRDNAKNTVYLQMSSLLPEDTAVYYCAAHFKFILAQRIKWGDMDYWGKGTQVTVSS
modifications: biotinylated for BLI
notes: also called Nb CA17302
Take B6: in the assay with mCherry [9], the “Half time ratio (relative to CA17302)” value stood at 1 fold and the “KD ratio (relative to CA17302)” value turned out to be 1 fold. In the assay with mCherry [10], the “Half time ratio (relative to wt)” value is 1 fold and the “KD ratio (relative to wt)” value amounted to 1 fold. In the assay with mCherry [11], the Kd was 1.69 nM, the koff worked out at 0.00102 s⁻¹ and the kon was determined as 619000 M⁻¹ s⁻¹. In the assay with mCherry [12], this molecule yielded a dissociation constant Kd of 1.69 nM, a koff of 0.00102 s⁻¹ and a kon of 619000 M⁻¹ s⁻¹. Further, the binding result in assay [13] was “binds”.

B7: CA17341 mCherry Nanobody trapper (CA17302 mutant) (including C-terminal 6xHis+EPEA tag) (VHH)
VHH: B6 VHH with I103A
modifications: biotinylated for BLI
notes: also called Nb CA17341
On to B7, for which, in the assay with mCherry [10], the “Half time ratio (relative to wt CA17302)” value is 2.26 fold and the “KD ratio (relative to wt CA17302)” value amounted to 2.4 fold. In the assay with mCherry [12], this molecule returned a dissociation constant Kd of 4.05 nM, a koff of 0.00231 s⁻¹ and an association rate constant (kon) of 601000 M⁻¹ s⁻¹. Besides, the binding result in assay [14] was “binds”.
